{
  "source": "patent US20120263652A1",
  "about": "(UNIVERSITY OF MARYLAND COLLEGE PARK, published 2012)",
  "key": {"[1]": {"biological_target": "human ICAM-1 (native, expressed on human cells: HUVEC, Caco-2) (human) (UniProt P05362)", "sequence (P05362 28-532)": "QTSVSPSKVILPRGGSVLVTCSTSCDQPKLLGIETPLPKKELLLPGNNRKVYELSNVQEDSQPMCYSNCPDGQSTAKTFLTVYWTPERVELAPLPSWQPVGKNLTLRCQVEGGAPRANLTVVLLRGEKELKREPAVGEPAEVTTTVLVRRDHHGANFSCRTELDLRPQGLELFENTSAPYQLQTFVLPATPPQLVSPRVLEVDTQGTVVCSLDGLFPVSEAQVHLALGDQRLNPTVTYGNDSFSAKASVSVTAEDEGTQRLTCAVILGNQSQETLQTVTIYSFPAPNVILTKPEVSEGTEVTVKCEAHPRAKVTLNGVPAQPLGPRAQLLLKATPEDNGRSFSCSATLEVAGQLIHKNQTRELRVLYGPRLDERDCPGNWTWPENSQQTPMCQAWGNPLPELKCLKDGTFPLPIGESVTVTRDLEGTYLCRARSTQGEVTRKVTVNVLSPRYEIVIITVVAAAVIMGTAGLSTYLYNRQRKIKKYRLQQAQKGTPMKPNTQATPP", "assay": "FITC IgG polystyrene carriers on fixed TNF-α-activated Caco-2 cells; fluorescence microscopy"}, "[2]": {"biological_target": "human ICAM-1 (native, expressed on human cells: HUVEC, Caco-2) (human) (UniProt P05362)", "assay": "competition: free non-specific IgG against FITC anti-ICAM carriers on Caco-2 cells; fluorescence microscopy"}, "[3]": {"biological_target": "mouse ICAM-1 (native, expressed on mouse endothelial cells) (mouse) (UniProt P13597)", "assay": "phage binding to H5V mouse endothelial cells; microscopy with fluorescent antibody to the phage capsid"}, "[4]": {"biological_target": "T1, mouse ICAM-1 chimera: the two most membrane-distal Ig domains (1 and 2) of mouse ICAM-1 fused to human Fc (mouse; human, UniProt P13597 28-214, limits assumed)", "T1 construct": "domain: the two most membrane-distal Ig domains -1 and 2-; also called mouse ICAM-1/Fc; mouse ICAM-1/hFc; not shown: human Fc (hFc)", "T1 sequence (P13597 28-214 limits assumed, stated change not applied)": "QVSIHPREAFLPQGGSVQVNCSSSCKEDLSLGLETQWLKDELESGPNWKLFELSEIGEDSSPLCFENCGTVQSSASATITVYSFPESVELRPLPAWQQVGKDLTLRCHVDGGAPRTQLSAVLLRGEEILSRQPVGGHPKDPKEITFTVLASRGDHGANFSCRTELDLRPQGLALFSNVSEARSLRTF", "assay": "phage ELISA on immobilized mouse ICAM-1/hFc", "excerpt": "(§1) Example 5 details development of the 7-mer phage-display derived peptides against ICAM-1. These were identified and isolated from a random library by using a chimeric ICAM-1 protein consisting of the two most membrane-distal Ig domains of mouse ICAM-1 fused to human Fc (hFc). One round of negative selection against hFc, followed by three rounds of positive selection against mouse ICAM-1/hFc, rendered six phage clones (A1, B7, B8, B9, B10, and D6), which recognized immobilized mouse ICAM-1 (FIG. 5A).\n(§2) (A) ELISA measurement of the binding of 7-mer peptide expressing phage library to immobilized recombinant ICAM-1 (consisting of the two most membrane-distal Ig domains −1 and 2- of mouse ICAM-1 fused to human Fc or hFc), versus their binding to control hFc. (B) Relative specificity and (C) relative affinity of ICAM-1-targeting peptide phages, determined by ELISA from the experiment in (A). (D) Relative binding of phages expressing 7-mer peptides to native ICAM-1 expressed on the surface of HV5 mouse endothelial cells, either control or activated with TNFalpha to mimic a disease phenotype. Binding was determined by microscopy using a fluorescently-labeled antibody to the phage capsid."}, "[5]": {"biological_target": "T1, mouse ICAM-1 chimera: the two most …", "assay": "γ3 absorbed on 100 nm FITC polystyrene particles; nitrocellulose-immobilized ICAM-1/Fc vs albumin; fluorescence microscopy", "experimental": "(A) The peptide γ3 was absorbed on the surface of 100 nm FITC-labeled polystyrene carriers and the resulting products were incubated for 15 min on nitrocellulose-immobilized albumin vs human or mouse ICAM-1 chimeras containing ICAM-1-Ig domains 1 and 2 fused to human Fc sequence. The membranes were washed and analyzed by fluorescence microscopy to quantify the number of carriers bound per area. Data are expressed relative to non-specific binding of γ3 carriers to albumin controls (dotted line). A comparison to binding of anti-ICAM carriers is provided (dashed line). (B) Binding of FITC-labeled polystyrene carriers coated by absorption with the peptide γ3 and recombinant acid sphingomyelinase (ASM, a therapeutic enzyme) to activated HUVEC (bars) vs ICAM-1-negative 293 cells (dotted line) was quantified by fluorescence microscopy after 1 h incubation at 37° C., in the absence or presence of excess γ3, anti-ICAM, γ3 scramble peptide, or mannose 6 phosphate (M6P). […] (C) HUVEC lysosomes were labeled for 2 h with Texas-red dextran at 37° C. […] Co-localization of FITC carriers with Texas-red dextran-lysosomes was quantified by fluorescence microscopy. […] Co-localization of FITC 2γ3 carriers with Texas red dextran-labeled lysosomes was assessed by microscopy 3 h post-internalization. […]"}, "[6]": {"biological_target": "T1, mouse ICAM-1 chimera: the two most …", "assay": "phage ELISA, binding to mouse ICAM-1/hFc relative to control hFc", "excerpt": "as §1, §2"}, "[7]": {"biological_target": "T1, mouse ICAM-1 chimera: the two most …", "assay": "phage ELISA on immobilized mouse ICAM-1/hFc, relative to non-selected phages", "excerpt": "as §1, §2"}, "[8]": {"biological_target": "T2, human ICAM-1 (native, expressed on human cells: HUVEC, Caco-2) (human, UniProt P05362 28-532)", "T2 construct": "whole, on cells; also called intercellular adhesion molecule 1; native human ICAM-1", "T2 sequence (P05362 28-532)": "as the sequence (P05362 28-532) above", "assay": "100 nm FITC polystyrene carriers coated with peptide on endothelial cells; fluorescence microscopy"}, "[9]": {"biological_target": "T2, human ICAM-1 (native, expressed on …)", "assay": "competition: synthetic peptide against FITC anti-ICAM polystyrene nanocarriers on human endothelial cells; fluorescence microscopy", "excerpt": "as §2, with “capsid. The line in the graph indicates the level of binding of A1 phage to 293 cells, which are voided of ICAM-1-expression. […] (G) Binding of FITC-labeled anti-ICAM polystyrene nanocarriers to human endothelial cells was evaluated by fluorescence microscopy after incubation with cells in the absence (100% level) or presence of anti-ICAM antibody, ICAM-1-targeting synthetic peptides, or peptides with their scramble sequence (e.g., A1 sc).” for “capsid.”"}},
  "data": [
    {"molecule": "non-specific IgG (control) (antibody)", "values": [
      {"measurement": "carriers/cell (carriers/cell)", "setting": "[1]", "result": 1.3},
      {"measurement": "carrier binding, % of the control value with no competitor", "setting": "[2]", "result": "102 % of control"}
    ]},
    {"molecule": "GCKLCAQ", "note": "[D6 peptide (phage display-derived 7-mer)]", "values": [
      {"measurement": "affinity, % of A1", "setting": "[3]", "result": "92.9 % of A1"}
    ]},
    {"molecule": "FSPHSRT (Tested as a phage clone and as a synthetic peptide; The assay field says which; also called B9 clone)", "note": "[B9 peptide (phage display-derived 7-mer)]", "values": [
      {"measurement": "affinity, % of A1", "setting": "[3]", "result": "72.3 % of A1"},
      {"measurement": "binding result", "setting": "[4]", "result": "binds"}
    ]},
    {"molecule": "NNQKIVNLKEKVAQLEA (Synthetic peptide; Tested mostly absorbed on 100 nm FITC polystyrene carriers, in some assays together with recombinant acid sphingomyelinase (ASM); also called γ3 carriers; γ3/ASM carriers)", "note": "[γ3 peptide (17 amino acid peptide derived from the γ chain of fibrinogen)]", "values": [
      {"measurement": "binding result", "setting": "[5]", "result": "binds"}
    ]},
    {"molecule": "YPASYQR (Tested as a phage clone (5 copies of the peptide on the capsid; coat protein fusion not described) and as a peptide synthesized in vitro; The assay field says which; also called A1 clone; clone A1 phages)", "note": "[A1 peptide (phage display-derived 7-mer)]", "values": [
      {"measurement": "specificity vs hFc", "setting": "[6]", "result": "~5.1", "unit": "fold"},
      {"measurement": "affinity, fold over non-selected phages", "setting": "[7]", "result": "~4.7", "unit": "fold"}
    ]},
    {"molecule": "NNQKIVNIKEKVAQIEA (Derivative of γ3, tested absorbed on polystyrene or PLGA carriers; also called 2γ3 carriers; 2γ3/ASM carriers)", "note": "[2γ3 peptide]", "values": [
      {"measurement": "binding result", "setting": "[8]", "result": "binds"}
    ]},
    {"molecule": "NNQKLVNIKEKVAQIEA (Derivative of γ3, tested absorbed on polystyrene carriers; also called 3γ3 carriers; 3γ3/ASM carriers)", "note": "[3γ3 peptide]", "values": [
      {"measurement": "binding result", "setting": "[8]", "result": "binds"}
    ]},
    {"molecule": "GSLLSAA (Tested as a phage clone and as a synthetic peptide; The assay field says which; also called B8 clone)", "note": "[B8 peptide (phage display-derived 7-mer)]", "values": [
      {"measurement": "binding result", "setting": "[9]", "result": "binds"}
    ]}
  ]
}
